Read-outs that look alike come from different tables or passages of the source.
How the values were obtained:
[1] = target: T1, Soluble mouse EPOR chimera protein (R&D Systems) (mouse, UniProt P14753 25-249); test: SPR, mouse EPOR chimera amine-coupled to chip, peptide as analyte
T1 construct: extracellular domain; Bought from R&D Systems; Amine-coupled to the SPR chip; also called erythropoietin receptor
T1 sequence (looked up): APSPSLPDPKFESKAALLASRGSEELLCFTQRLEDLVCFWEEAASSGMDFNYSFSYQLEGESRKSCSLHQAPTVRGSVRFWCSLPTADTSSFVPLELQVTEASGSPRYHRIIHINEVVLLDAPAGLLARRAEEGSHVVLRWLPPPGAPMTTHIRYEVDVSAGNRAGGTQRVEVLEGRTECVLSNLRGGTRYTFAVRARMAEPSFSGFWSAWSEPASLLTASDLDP
Experimental: The SPR technique is to measure interactions between biomolecules in real-time by using an optical principle without specific labeling, and is a system analyzing affinity between two molecules and kinetics, i.e., an association rate (Ka) and a dissociation rate (Kd).
In detail, real-time SPR analysis was performed using Reichert SPR Biosensor SR 7500C instrument (Reichert Inc., NY, USA). Soluble mouse EPOR chimera proteins (R&D Systems, Minneapolis, Minn., USA) were covalently linked to a carboxymethylated dextran matrix-coated chip (BR-1005-39, Pharmacia Biosensor AB) by an amine coupling procedure using an amine coupling kit (BR-1000-50, GE Healthcare, USA) in accordance with manufacturer's instructions. […] For signal normalization, DMSO was applied at a flow rate of 5 μl/minute, and after each binding cycle, the sensor chip was regenerated by injecting 25 mM acetic acid at a flow rate of 20 μl/minute.

[2] = target: T1, Soluble mouse EPOR chimera protein (R&D …); test: as above; remark: listed apart in the source

Binder	Kd [1] [µM]	Kd [2] [µM]
LQLHVLKRVSGLLSHTMLLKALG (Synthetic monomer) [ML1-1]	1.06	–
SGLRSLTTLLRALGAQKEAI (Synthetic monomer) [ML6]	900	–
LQLHVLKAVSGLLTLTMIRRALG [ML1-H2]	–	0.307
RHVQKAESGLRSLTKLLREL (Synthetic monomer) [ML2-1]	14.3	–
KGLRSLISLLRALGAQKEAI (Synthetic monomer) [ML6-1]	158	–
NKAVAGLRSLTVN (Synthetic monomer) [ML8-1]	2370	–
LHVDKAVSGLRSLTTLLRAL (Synthetic monomer) [ML2]	273	–
DKAVSGLRSLTTLLRAL (Synthetic monomer) [ML8]	444	–
LQLHVLKAVAGLRTLAMIRRALA [ML1-H3]	–	1.15
AGLRSRAHLRRALA (Synthetic monomer) [ML5-1]	78.3	–
TKVNFYAWKR (Synthetic monomer) [ML3]	14.6	–
DEALDLEVDKAATGLRTLTTLIRAL (Synthetic monomer) [ML7-1]	63.7	–
LQLHVLKAVSGLLTHTTLLKALG [ML1-H1]	–	7.85
SGLRSLTTLLRALG (Synthetic monomer) [ML5]	0.329	–
LQRHVKKRVKGLKSLTTLLRALG (Charge-modified variant of ML1) [ML1-C3]	–	9.83
TRVNYQAWKR (Synthetic monomer) [ML3-1]	4.31	–
DKAVSGLRSLTTLLRALGAQKEAI (Synthetic monomer) [ML4]	10	–
LQLHVDKAVSGLRSLTTLLRALG (Synthetic monomer made by solid phase peptide synthesis; also called erythropoietin-derived peptide ML1) [ML1]	6.46	6.46
LQRHVDKRVSGLRSLTTLLRALG (Charge-modified variant of ML1) [ML1-C2]	–	11.8
LDLEVDKAVSGLRSLTTLLRALG (Charge-modified variant of ML1) [ML1-C1]	–	150
KKAVSGLKTLTHILRALGAQKEAI (Synthetic monomer) [ML4-1]	~39.3	–

Reference: patent US20210340206A1 (SYLUS, published 2021)
